Reference: publication PMC3955401 (Nature, 2013)
No end group written: not given here.

Experiments:
Assay in all cases: pull-down
GST-53BP1 Tudor = GST-53BP1 Tudor (UniProt Q12888 1484-1603)
GST-53BP1 Tudor-UDR = GST-53BP1 Tudor-UDR (UniProt Q12888 1484-1631)
[1] = molecular target: GST-53BP1 Tudor-UDR L1619A (UniProt Q12888 1484-1631, L1619A)

Measured: binding result

Sequence of GST-53BP1 Tudor-UDR L1619A (Q12888 1484-1631 L1619A): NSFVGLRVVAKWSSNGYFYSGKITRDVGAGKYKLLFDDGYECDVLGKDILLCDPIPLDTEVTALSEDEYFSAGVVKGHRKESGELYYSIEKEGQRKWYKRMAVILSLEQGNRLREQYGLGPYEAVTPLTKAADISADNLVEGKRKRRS
Sequence of GST-53BP1 Tudor (Q12888 1484-1603): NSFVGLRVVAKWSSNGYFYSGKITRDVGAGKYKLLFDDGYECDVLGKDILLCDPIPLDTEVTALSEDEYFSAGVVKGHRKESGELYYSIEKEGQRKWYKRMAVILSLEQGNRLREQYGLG
Sequence of GST-53BP1 Tudor-UDR (Q12888 1484-1631): as the sequence (Q12888 1484-1631 L1619A) above, with A136L counted along it

YGKGGAKRHRK(dimethyl)VLRD [H4K20me2 peptide]
binds: all assays above
